# Test results taken from patent publication US20160168210A1, “DERIVATIVES OF COLLAGEN-BINDING HAIRPIN PEPTIDES” (NATIONAL RESEARCH COUNCIL OF CANADA, priority 2012, published 2016).
# “Also recorded” adds a separate entry of the source. Where no end group is shown, it is not given here.
# Assays:
# [1] = biological target: T1, rat-tail collagen type I (Rattus norvegicus, UniProt P02454+P02466); test: Collagen binding/responsiveness of peptides by proton NMR and H-15N HSQC spectroscopy; design: rat-tail collagen type I (at 4 mg/ml in 0.02 N acetic acid); purchased BD Bioscience; host or cells: rat tail (tissue-derived); settings: for response to / binding of collagen (NMR spectral perturbations): peptide free in solution vs in the presence of collagen; for NMR perturbations after collagen gelation (polymerization); reversibility of collagen binding: before vs after collagen gelation
# T1 sequence (P02454 152-1207 limits assumed): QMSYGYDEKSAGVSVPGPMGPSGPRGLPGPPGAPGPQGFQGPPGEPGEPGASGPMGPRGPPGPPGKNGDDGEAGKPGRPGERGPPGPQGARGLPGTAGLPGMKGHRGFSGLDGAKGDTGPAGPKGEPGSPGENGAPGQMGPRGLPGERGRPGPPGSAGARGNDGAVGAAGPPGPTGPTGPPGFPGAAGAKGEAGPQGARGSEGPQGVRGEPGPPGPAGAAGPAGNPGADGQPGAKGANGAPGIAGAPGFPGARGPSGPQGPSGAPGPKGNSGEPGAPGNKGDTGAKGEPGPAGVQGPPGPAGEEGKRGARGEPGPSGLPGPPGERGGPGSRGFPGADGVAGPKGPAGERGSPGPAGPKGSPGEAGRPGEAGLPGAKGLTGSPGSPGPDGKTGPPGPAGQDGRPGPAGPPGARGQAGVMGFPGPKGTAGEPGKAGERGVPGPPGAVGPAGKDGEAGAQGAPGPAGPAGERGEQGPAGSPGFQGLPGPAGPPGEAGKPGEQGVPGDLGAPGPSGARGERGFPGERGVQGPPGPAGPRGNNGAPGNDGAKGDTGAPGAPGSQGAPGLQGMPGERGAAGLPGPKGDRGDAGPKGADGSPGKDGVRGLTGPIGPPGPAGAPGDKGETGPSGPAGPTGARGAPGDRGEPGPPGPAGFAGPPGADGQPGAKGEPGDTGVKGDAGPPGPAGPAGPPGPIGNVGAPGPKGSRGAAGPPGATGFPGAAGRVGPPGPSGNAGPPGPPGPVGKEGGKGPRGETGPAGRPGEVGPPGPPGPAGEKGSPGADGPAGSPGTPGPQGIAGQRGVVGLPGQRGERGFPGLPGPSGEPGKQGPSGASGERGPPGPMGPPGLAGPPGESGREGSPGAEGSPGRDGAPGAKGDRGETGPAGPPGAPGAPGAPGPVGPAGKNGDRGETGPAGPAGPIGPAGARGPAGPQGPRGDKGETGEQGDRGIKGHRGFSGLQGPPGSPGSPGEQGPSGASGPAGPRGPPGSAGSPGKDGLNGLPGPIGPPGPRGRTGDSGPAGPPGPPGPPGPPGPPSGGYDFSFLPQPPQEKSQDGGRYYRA
# T1 sequence (P02466 86-1125 limits assumed): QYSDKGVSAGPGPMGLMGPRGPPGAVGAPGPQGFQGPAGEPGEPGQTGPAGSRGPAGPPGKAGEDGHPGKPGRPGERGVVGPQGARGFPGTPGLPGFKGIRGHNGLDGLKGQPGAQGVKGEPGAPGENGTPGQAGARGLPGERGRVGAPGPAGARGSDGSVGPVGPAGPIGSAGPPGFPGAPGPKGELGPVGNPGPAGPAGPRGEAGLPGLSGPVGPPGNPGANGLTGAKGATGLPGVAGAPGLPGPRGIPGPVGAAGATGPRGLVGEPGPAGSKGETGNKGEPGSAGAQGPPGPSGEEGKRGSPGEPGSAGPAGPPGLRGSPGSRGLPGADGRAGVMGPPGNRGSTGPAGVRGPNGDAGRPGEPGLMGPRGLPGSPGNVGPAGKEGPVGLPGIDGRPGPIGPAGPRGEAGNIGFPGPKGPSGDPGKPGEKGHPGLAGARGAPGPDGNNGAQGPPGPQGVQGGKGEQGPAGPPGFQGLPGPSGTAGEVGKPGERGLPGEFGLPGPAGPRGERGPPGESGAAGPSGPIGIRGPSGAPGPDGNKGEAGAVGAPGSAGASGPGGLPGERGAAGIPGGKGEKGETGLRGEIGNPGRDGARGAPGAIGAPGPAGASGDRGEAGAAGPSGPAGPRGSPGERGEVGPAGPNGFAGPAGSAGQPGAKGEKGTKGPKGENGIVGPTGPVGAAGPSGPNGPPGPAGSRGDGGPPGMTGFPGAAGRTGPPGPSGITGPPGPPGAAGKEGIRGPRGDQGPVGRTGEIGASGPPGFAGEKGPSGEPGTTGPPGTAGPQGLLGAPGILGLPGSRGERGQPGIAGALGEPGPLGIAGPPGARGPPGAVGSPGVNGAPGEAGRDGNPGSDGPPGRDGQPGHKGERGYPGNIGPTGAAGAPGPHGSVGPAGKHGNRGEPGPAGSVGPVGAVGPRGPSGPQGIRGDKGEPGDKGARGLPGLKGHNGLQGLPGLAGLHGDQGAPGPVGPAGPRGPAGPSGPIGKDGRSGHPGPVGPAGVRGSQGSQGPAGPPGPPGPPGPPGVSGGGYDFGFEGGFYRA
# Protocol: Rat collagen hydrogels were prepared using rat-tail collagen type I (at 4 mg/ml in 0.02 N acetic acid) from BD Bioscience. A volume of 200 μL of the concentrated collagen solution was mixed with an equal volume of a buffer solution that was 400 mM in Tris-HCl and 400 mM in NaCl with a pH of 7.6 and with 50 μL of deuterated water (D2O). The sample mixture was transferred to an NMR tube followed by gentle mixing under agitation using a Thermolyne™ Max Mix-II apparatus. The NMR tube containing the collagen solution was placed within the RF probe housed in a 500 MHz super-conducting magnet (Bruker Avance-500 NMR spectrometer). The probe and sample bulk temperature was kept at 277 K for 3 hours and then elevated to 310 K at a rate of 1 degree/10 min to enable fibril alignment during a slow process of collagen gelation under the influence of the magnetic field (Ma 2008). The degree of fibril alignment of the collagen hydrogels was determined by use of deuterium NMR spectroscopy of the added D2O as described (Ma 2008). […]
# Randomly-deposited collagen (hydrogel) matrix was prepared following the same procedure as above for partially aligned hydrogels, except that the RF probe and the NMR tube (or test tubes) containing the collagen solution were placed outside the magnetic field. Peptides containing collagen-binding hairpins were introduced into the hydrogels in two ways, the first with the collagen stock solution diluted (50:50 in volume ratio) by the buffer of 400 mM in Tris-HCl and 400 mM in NaCl at pH 7.6 containing the peptides of interest (i.e. for FIGS. 1A & 1D), which gelates in the presence of the added peptide. Alternatively, peptides in an appropriate buffer were introduced to the top of the hydrogel matrix (i.e. for FIGS. 1B & 1C) preformed in the NMR tube (or test tube) following the procedures described above. The behavior of the peptides in the hydrogels was followed by use of NMR H-^15N HSQC spectra for ^15N-labelled peptides (FIG. 1) and/or by use of one-dimensional proton NMR spectroscopy (FIG. 2).
# (§1) Deuterium NMR spectroscopy studies of collagen responsiveness (and/or binding) for each peptide were carried out using a volume of (400-X) μL of a peptide dissolved in pure water mixed with 50 μL of a 10×PBS (phosphate-buffered saline) supplemented by sodium phosphate to a final concentration of 50 mM, with 50 μL of deuterated water (D2O) to form the reference sample (where X=0), or the peptide-collagen complex with X μL of rat-tail collagen type I (at 3.6 to 4 mg/ml in 0.02 N acetic acid from BD Bioscience) adjusted to achieve the desired final concentration of collagen. The pH value of the reference peptide samples was adjusted to match the pH of the final peptide-collagen complex in order to facilitate NMR spectral comparison. The peptide-collagen solutions were also subjected to gelation under magnetic field guidance followed by the measurement of fibril alignment (Ma 2008) as a semi-quantitative indication of peptide-collagen binding. Deuterium coupling constants measuring the degree of collagen fibril alignment were reduced by more than 1.0 Hz for MH2-wZIP4, by less than 0.5 Hz for MH2-wZIP6 and MH2-wZIP5, which parallel those observed for trpzip4, trpzip6, trpzip5 and the gb1 peptide (see Example 4). As a comparison, a solution of rat collagen at a concentration of 1.8 mg/ml in 200 mM Tris-Cl/200 mM NaCl at pH 7.6 formed a partially-aligned hydrogel with a deuterium coupling constant (Ma, 2008) of 2.5 Hz, while a solution of rat collagen at a concentration of 3 mg/ml in PBS (137 mM NaCl/2.68 mM KCl/10.1 mM Na2HPO4/1.76 mM KH2PO4) supplemented with Na2HPO4 to achieve a final concentration of 50 mM at pH 7.4 formed a partially-aligned hydrogel with a deuterium coupling constant of 4.8 Hz. A solution of human collagen at a concentration of 2.23 mg/ml in PBS supplemented with Na2HPO4 with a final concentration of 50 mM at pH 7.4 formed a partially-aligned hydrogel with a deuterium coupling constant of 1.3 Hz.
# [2] = biological target: T1, rat-tail collagen type I; test: Collagen fibril alignment of hydrogels formed from peptide-collagen solutions, deuterium NMR (deuterium coupling constant); assay type: binding; design: rat-tail collagen type I (at 4 mg/ml in 0.02 N acetic acid); purchased BD Bioscience; host or cells: rat tail (tissue-derived)
# Protocol: Rat collagen hydrogels were prepared using rat-tail collagen type I (at 4 mg/ml in 0.02 N acetic acid) from BD Bioscience. A volume of 200 μL of the concentrated collagen solution was mixed with an equal volume of a buffer solution that was 400 mM in Tris-HCl and 400 mM in NaCl with a pH of 7.6 and with 50 μL of deuterated water (D2O). The sample mixture was transferred to an NMR tube followed by gentle mixing under agitation using a Thermolyne™ Max Mix-II apparatus. The NMR tube containing the collagen solution was placed within the RF probe housed in a 500 MHz super-conducting magnet (Bruker Avance-500 NMR spectrometer). The probe and sample bulk temperature was kept at 277 K for 3 hours and then elevated to 310 K at a rate of 1 degree/10 min to enable fibril alignment during a slow process of collagen gelation under the influence of the magnetic field (Ma 2008). The degree of fibril alignment of the collagen hydrogels was determined by use of deuterium NMR spectroscopy of the added D2O as described (Ma 2008).
# as §1, with “A solution of human collagen at a concentration of 2.23 mg/ml in PBS supplemented with Na2HPO4 with a final concentration of 50 mM at pH 7.4 formed a partially-aligned hydrogel with a deuterium coupling constant of 1.3 Hz.” left out
# [3] = as reported previously (Blanco 1994; Cochran 2001b); cited from earlier work
# [4] = biological target: T2, rat-tail collagen type I (rat, UniProt P02454 152-1207; P02466 86-1125); test: NMR spectroscopy (Table 4 footnote)
# T2 construct: also called type-I collagen; unpolymerized collagen
# T2 sequence (P02454 152-1207 limits assumed, chain 1 of 2): as the sequence (P02454 152-1207 limits assumed) above
# T2 sequence (P02466 86-1125 limits assumed, chain 2 of 2): as the sequence (P02466 86-1125 limits assumed) above
# [5] = biological target: T2, rat-tail collagen type I; test: cell-based or functional assay
molecule,measurement,setting,value
GEWTYDDATKTFTVTE (gb1 - does not bind collagen) [reference compound],response to / binding of collagen (NMR spectral perturbations),[1],no response to collagen; also recorded: little binding capacity; also recorded: does not bind collagen
same,effect on collagen gelation and degree of collagen alignment,[2],remained similar with or without the peptide
same,Tm,[3],about 7 °C
IRFDTGEWTWDDATKTWTWTEGDFEEIPEEYLQ (MH2-wZIP4 - molecule of Formula (I)),NMR perturbations after collagen gelation (polymerization); reversibility of collagen binding,[1],no dramatic impact on resonance perturbations
same,NMR perturbations / release after collagen degradation by a collagenase,[1]; collagenase treatment,releasable by the collagenase; also recorded: highly sensitive to the treatment of a collagenase
same,entrapment in collagen hydrogel,[1]; diffused into pre-aligned collagen hydrogels,greatly-reduced entrapment
same,response to / binding of collagen (NMR spectral perturbations),[1],most pronounced proton NMR spectral changes; also recorded: highest capacity of binding unpolymerized soluble collagen
same,effect on collagen gelation and degree of collagen alignment,[2],most pronounced interference with hydrogel formation by collagen
same,reduction of deuterium coupling constant measuring the degree of collagen fibril alignment,[2]; gelation under magnetic field guidance,more than 1.0 Hz
"GEWTYDDATKTFTWTE (GEWTYDDATKTFTWTE-NH2) [trpzip5, reference compound]",NMR perturbations after collagen gelation (polymerization); reversibility of collagen binding,[1],revert toward those of the free peptides after collagen polymerization; also recorded: reverts to a greater extent as compared to trpzip6
same,response to / binding of collagen (NMR spectral perturbations),[1],responded to collagen; also recorded: respond to the presence of collagen
same,Tm,[3],about 43 °C
"GEWTWDDATKTWTVTE (GEWTWDDATKTWTVTE-NH2) [trpzip6, reference compound]",NMR perturbations after collagen gelation (polymerization); reversibility of collagen binding,[1],revert toward those of the free peptides after collagen polymerization
same,response to / binding of collagen (NMR spectral perturbations),[1],responded to collagen; also recorded: respond to the presence of collagen
same,Tm,[3],about 45 °C
"GEWTWDDATKTWTWTE (GEWTWDDATKTWTWTE-NH2) [trpzip4, reference compound]",response to / binding of collagen (NMR spectral perturbations),[1],responded to collagen; also recorded: most pronounced changes in response to the presence of collagen; also recorded: dramatically altered by collagen
same,effect on collagen gelation and degree of collagen alignment,[2],significantly reduced degree of collagen alignment
same,Tm,[3],about 70 °C
SVTWENGKWTVK [W4W9-trpzip2],binding result,[4],no binding
SYTWEGNKWTYK [Y2Y11-trpzip1],binding result,[4],no binding
IRFTDGEWTWDDATKTWTWTEGDFEEIPEEYLQ [MH2-wZIP4],reduction of the deuterium coupling constant measuring the degree of collagen fibril alignment,[5],> 1 Hz
GEWTYDDATKTFTWTE [MH2-wZIP5],reduction of the deuterium coupling constant measuring the degree of collagen fibril alignment,[5],< 0.5 Hz
GEWTWDDATKTWTVTE [MH2-wZIP6],reduction of the deuterium coupling constant measuring the degree of collagen fibril alignment,[5],< 0.5 Hz
SYTWENGKWTYK [YWWY-trpzip2],binding result,[4],no binding
